B1: ZNF232 (parent)
chain: HSGEKPFICKECGKAYGWCSELIR

Variants of: B1
Test: protein stability index of a GFP-peptide fusion (GPS, HEK-293T) (PSI 1-6); higher = more stable
Conditions: c terminus: a fixed tail appended
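Further: lentivirally expressed fusions sorted by FACS into six bins by GFP to DsRed ratio, PSI derived from sequencing read proportions per bin multiplied by bin number.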

Variant	protein stability index
HSGEKPFIMKECGKAYGWCSELIR [C9M]	2.6
HSGEKPFIHKECGKAYGWCSELIR [C9H]	3.06
HSGEKPFILKECGKAYGWCSELIR [C9L]	2.25
HSGEKPFIKKECGKAYGWCSELIR [C9K]	2.09
HSGEKPFIIKECGKAYGWCSELIR [C9I]	2.54
HSGEKPFIRKECGKAYGWCSELIR [C9R]	2.32
HSGEKPFIEKECGKAYGWCSELIR [C9E]	2.3
HSGEKPFITKECGKAYGWCSELIR [C9T]	2.34
HSGEKPFISKECGKAYGWCSELIR [C9S]	1.92
HSGEKPFIPKECGKAYGWCSELIR [C9P]	2.23
HSGEKPFIFKECGKAYGWCSELIR [C9F]	2.78
HSGEKPFIAKECGKAYGWCSELIR [C9A]	1.94
HSGEKPFIWKECGKAYGWCSELIR [C9W]	2.43
HSGEKPFIVKECGKAYGWCSELIR [C9V]	2.33
HSGEKPFIGKECGKAYGWCSELIR [C9G]	1.97
HSGEKPFIYKECGKAYGWCSELIR [C9Y]	2.68
HSGEKPFIDKECGKAYGWCSELIR [C9D]	2.71
HSGEKPFINKECGKAYGWCSELIR [C9N]	2.09
HSGEKPFIQKECGKAYGWCSELIR [C9Q]	2.48
HSGEKPFICKESGKAYGWCSELIR [C12S]	2.42
HSGEKPFICKEFGKAYGWCSELIR [C12F]	2.38
HSGEKPFICKEMGKAYGWCSELIR [C12M]	2.81
HSGEKPFICKEHGKAYGWCSELIR [C12H]	1.43
HSGEKPFICKEYGKAYGWCSELIR [C12Y]	2.15

Variant	protein stability index
HSGEKPFICKEEGKAYGWCSELIR [C12E]	2.64
HSGEKPFICKEAGKAYGWCSELIR [C12A]	1.85
HSGEKPFICKELGKAYGWCSELIR [C12L]	3.03
HSGEKPFICKEWGKAYGWCSELIR [C12W]	2.18
HSGEKPFICKEQGKAYGWCSELIR [C12Q]	1.88
HSGEKPFICKENGKAYGWCSELIR [C12N]	2.72
HSGEKPFICKERGKAYGWCSELIR [C12R]	1.79
HSGEKPFICKEPGKAYGWCSELIR [C12P]	1.81
HSGEKPFICKEVGKAYGWCSELIR [C12V]	2.79
HSGEKPFICKETGKAYGWCSELIR [C12T]	2.21
HSGEKPFICKEIGKAYGWCSELIR [C12I]	2.5
HSGEKPFICKEDGKAYGWCSELIR [C12D]	2.44
HSGEKPFICKEKGKAYGWCSELIR [C12K]	2.33
HSGEKPFICKEGGKAYGWCSELIR [C12G]	2.15
HSGEKKFICKECGKAYGWCSELIR [P6K]	2.91
HSGEKSFICKECGKAYGWCSELIR [P6S]	1.98
HSGEKWFICKECGKAYGWCSELIR [P6W]	1.69
HSGEKGFICKECGKAYGWCSELIR [P6G]	2.08
HSGEKFFICKECGKAYGWCSELIR [P6F]	1.66
HSGEKNFICKECGKAYGWCSELIR [P6N]	2.37
HSGEKYFICKECGKAYGWCSELIR [P6Y]	1.74
HSGEKCFICKECGKAYGWCSELIR [P6C]	2.45
HSGEKHFICKECGKAYGWCSELIR [P6H]	2.04
HSGEKDFICKECGKAYGWCSELIR [P6D]	2.68

Variant	protein stability index
HSGEKVFICKECGKAYGWCSELIR [P6V]	2.12
HSGEKAFICKECGKAYGWCSELIR [P6A]	1.74
HSGEKMFICKECGKAYGWCSELIR [P6M]	2.04
HSGEKIFICKECGKAYGWCSELIR [P6I]	1.83
HSGEKRFICKECGKAYGWCSELIR [P6R]	2.23
HSGEKTFICKECGKAYGWCSELIR [P6T]	2.3
HSGEKLFICKECGKAYGWCSELIR [P6L]	2.2
HSGEKQFICKECGKAYGWCSELIR [P6Q]	1.35
HSGEKEFICKECGKAYGWCSELIR [P6E]	2.37
HSGEKPFICKECGDAYGWCSELIR [K14D]	2.01
HSGEKPFICKECGPAYGWCSELIR [K14P]	1.53
HSGEKPFICKECGMAYGWCSELIR [K14M]	1.96
HSGEKPFICKECGIAYGWCSELIR [K14I]	2.04
HSGEKPFICKECGNAYGWCSELIR [K14N]	1.67
HSGEKPFICKECGCAYGWCSELIR [K14C]	2.73
HSGEKPFICKECGQAYGWCSELIR [K14Q]	1.87
HSGEKPFICKECGGAYGWCSELIR [K14G]	2.8
HSGEKPFICKECGFAYGWCSELIR [K14F]	2.02
HSGEKPFICKECGLAYGWCSELIR [K14L]	1.44
HSGEKPFICKECGAAYGWCSELIR [K14A]	2.39
HSGEKPFICKECGHAYGWCSELIR [K14H]	1.61
HSGEKPFICKECGEAYGWCSELIR [K14E]	1.61
HSGEKPFICKECEKAYGWCSELIR [G13E]	2.14
HSGEKPFICKECTKAYGWCSELIR [G13T]	1.65

Variant	protein stability index
HSGEKPFICKECDKAYGWCSELIR [G13D]	1.97
HSGEKPFICKECIKAYGWCSELIR [G13I]	1.76
HSGEKPFICKECCKAYGWCSELIR [G13C]	2.22
HSGEKPFICKECPKAYGWCSELIR [G13P]	1.65
HSGEKPFICKECVKAYGWCSELIR [G13V]	2.39
HSGEKPFICKECMKAYGWCSELIR [G13M]	1.89
HSGEKPFICKECFKAYGWCSELIR [G13F]	1.49
HSGEKPFICKECLKAYGWCSELIR [G13L]	1.49
HSGEKPFICKECWKAYGWCSELIR [G13W]	1.53
HSGEKPFICKECAKAYGWCSELIR [G13A]	2.29
HSGEKPFICKECRKAYGWCSELIR [G13R]	1.7
HSGEKPFICKECYKAYGWCSELIR [G13Y]	2.12
HSGEKPFICKECNKAYGWCSELIR [G13N]	2.1
HSGEKPFICKECSKAYGWCSELIR [G13S]	1.88
HSGEKPFICKECQKAYGWCSELIR [G13Q]	1.44
HSGEKPFICKECHKAYGWCSELIR [G13H]	1.77
HSGEKPFICKECKKAYGWCSELIR [G13K]	1.42
HSGYKPFICKECGKAYGWCSELIR [E4Y]	1.81
HSGVKPFICKECGKAYGWCSELIR [E4V]	1.05
HSGTKPFICKECGKAYGWCSELIR [E4T]	1.29
HSGWKPFICKECGKAYGWCSELIR [E4W]	1.54
HSGEMPFICKECGKAYGWCSELIR [K5M]	2.05
